# From US12636342B2, “TARS derived from Akkermansia muciniphila or fragment thereof, and use thereof” (KOREA RESEARCH INSTITUTE OF BIOSCIENCE AND BIOTECHNOLOGY, priority 2020, dated 2026)
# B1: Akkermansia muciniphila-derived threonyl-tRNA synthetase (TARS) (protein)
# chain: MSEHKERKTLEERQQMSDLERLRHSCAHVLATAICRLWPDAQLAGGPAVDNGFYYDVELDHRISTEDFERIEEEMKKVVKENQVFQKEVISRADAMKMAESGELGALGPRSEPSRFKIDLLNDIPEDEEISLYRNGDFTDLCAGPHVGRTGNCKAFKIMSVASAFYKGDKNRPMLQRIYGTCFPNRTQLDEHLERLEEARRRDHRKLGRELGLFCIDESVGQGLILWKPKGALIRRSLQDFITEELDKLGYSQVYTPNIGKLDLYRTSGHFPYYQESQYAPIPERDAMEKLSQEGASCAELFNGLATGTIEGYMLKPMNCPHHIKIYANDAHSYRDLPVRLAEFGTVYRWEQSGELGGMTRVRGFTQDDAHIFCTPDQLAGEIRQCLGIVKTIFGTLGMTDYRVRLSMRDPESDKYVGSPENWDKAEQALREAAEWLGADYSEEAGEAAFYGPKIDFIVRDAIGREWQLGTVQVDYNLPERFDLHYTGADNKPHRPVMVHRAPFGSMERFTGLLIEHFEGKFPTWLSPEQVRVLPISDKVTDVAAAHRTALAARGVRVTVDETPDKIGAKIRNARLDRVPYMLVLGQREAEDGTVSVRHRDKGDLGAMPFEQFADLVAREIAERHISPVI
# modifications: Akkermansia muciniphila TARS
# How the values were obtained:
# [1] = test system: B cell-deficient μMut mice; assay: DSS-induced inflammatory bowel disease in B cell-deficient μMut mice; assay type: in vivo, mouse
# Procedure: To determine whether the inflammatory bowel disease alleviation effect induced through the secretion of IL-10 cytokine by AmTARS corresponded to a B cell-mediated effect, DSS was administered to B cell-deficient μMut mice (μ heavy chain mutation mice, B cell depletion mice) by way of the same method as in Example 5 to induce inflammatory bowel disease, and AmTARS was administered.
# [2] = test system: Tg (NFκB:EGFP) zebrafish transgenic line; assay: NF-κB activity in DSS-treated Tg (NFκB:EGFP) zebrafish larvae; assay type: in vivo; conditions: yolk injection at 3 dpf, 0.5% DSS, analysis at 6 dpf
# Procedure: (A-E) Global gene expression analysis. Total mRNA from BMDMs treated with either AmTARS (0.5 μM) or Pam3 (10 ng ml-1) for 1 or 3 h was isolated and analyzed by RNA sequencing (A). Principle components analysis (PCA) of the gene expression profiles for each sample (B). Hierarchical clustering of gene expression profiles from each sample identified cluster 3 and 4 (C). Gene set enrichment analysis (GSEA) of clusters 3 and 4 with respect to terms related to inflammation (D). […] (F) Overview of the experimental procedures for zebrafish. The yolk of Tg (NFκB:EGFP) transgenic zebrafish larvae (3 dpf) was injected with PBS or AmTARS. Injected larvae were treated at 3 and 5 dpf with 0.5% DSS for 24 h, with a washing period with fresh water for 24 h in between. Sample collection and analysis of Tg (NFκB:EGFP)-based EGFP intensity were conducted at 6 dpf. (G) Representative confocal images showing NF-κB signaling in the mid-distal intestines of PBS- or AmTARS-injected larvae with or without DSS treatment. White dashed lines denote the boundaries of the intestines (based on merged DIC bright field images). (H) Bar graph comparing the fluorescence intensity of the mid-distal intestines of PBS- or AmTARS-injected larvae treated (or not) with DSS (n=32 per PBS group and n=35 per DSS group). […] P-values were calculated by unpaired and two-tailed Student's t-test. […]
# [3] = target: T1, Toll-like receptor 2 (TLR2) (Homo sapiens, UniProt O60603); assay: Pull-down / in vitro interaction assay with TLR2; assay type: binding
# T1 construct: 13; TLR2; 17; pIRES-FLAG; FLAG; Mammal; FLAG (C); expressed in transfected cells; host or cells: HEK 293T (human)
# T1 sequence (O60603 21-784): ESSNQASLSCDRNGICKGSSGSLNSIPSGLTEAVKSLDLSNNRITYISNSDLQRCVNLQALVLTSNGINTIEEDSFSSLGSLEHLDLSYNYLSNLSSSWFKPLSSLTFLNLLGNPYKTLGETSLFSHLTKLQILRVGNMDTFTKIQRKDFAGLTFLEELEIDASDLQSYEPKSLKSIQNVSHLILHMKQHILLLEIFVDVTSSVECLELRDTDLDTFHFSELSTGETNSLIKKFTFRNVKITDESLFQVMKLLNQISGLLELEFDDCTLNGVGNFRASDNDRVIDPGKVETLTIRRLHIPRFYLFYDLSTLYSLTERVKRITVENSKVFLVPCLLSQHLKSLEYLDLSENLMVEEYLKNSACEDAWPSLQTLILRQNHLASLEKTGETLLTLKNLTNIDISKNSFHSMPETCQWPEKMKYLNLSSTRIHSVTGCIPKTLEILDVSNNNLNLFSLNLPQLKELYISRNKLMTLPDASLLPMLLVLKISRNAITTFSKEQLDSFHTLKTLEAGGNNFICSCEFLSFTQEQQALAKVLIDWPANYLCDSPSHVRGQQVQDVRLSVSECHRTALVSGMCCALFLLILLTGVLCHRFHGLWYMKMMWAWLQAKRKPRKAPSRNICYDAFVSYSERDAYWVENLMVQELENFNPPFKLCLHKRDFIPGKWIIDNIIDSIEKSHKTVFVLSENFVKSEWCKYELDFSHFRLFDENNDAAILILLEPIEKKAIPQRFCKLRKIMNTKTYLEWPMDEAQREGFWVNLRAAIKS
# Procedure: Then, Strep-tagged AmTARS, AmTARS having deletions of two functional site (AmTARSΔ1Δ2), and FLAG-tagged TLR2 were transduced into human-derived HEK 293T cells through PEI, and thereafter, the cells were lysed using a lysis buffer containing 50 mM Tris-HCl (pH 7.5), 100 mM NaCl, 1% NP-40, 1 mM EDTA, 0.25% Na-deoxycholate, and a protease inhibitor cocktail. The cell lysates each were incubated with Strep Tactin beads and washed with a buffer containing 137 mM NaCl, 2.7 mM KCl, 10 mM Na2HPO4, 1.8 mM KH2PO4, and 1 mM EDTA, and proteins attached to the beads were eluted and analyzed by immunoblotting.
# In addition, His-tagged AmTARS and FLAG-tagged protein were mixed at a ratio of 1:2, incubated with Ni-NTA beads, and then washed with a buffer containing 50 mM Tris-HCl (pH 8.0), 300 mM NaCl, 30 mM imidazole, and 1% NP-40, and the proteins attached to the beads were eluted and identified on SDS-PAGE gel.
# [4] = test system: macrophage-depleted colitis mice; assay: DSS-induced colitis in macrophage-depleted (Clodrosome) mice; assay type: in vivo, mouse
# Procedure: To further validate the macrophage-dependent function of AmTARS in improving colitis, we investigated the anti-inflammatory effects of AmTARS in macrophage-depleted colitis mice.
# A macrophage-deficient mice were prepared by administration of Clodrosome (administered at a concentration of 200 μL/animal to the abdominal cavity of mice a total of three times on Days 1, 5, and 8), and then the anti-inflammatory efficacy experiment was conducted by way of the same method as in Example 5. Normal mice injected with Encapsome were used as a control.
# human macrophages (THP1) = assay: ELISA of immune cytokine secretion in THP1 under normal conditions; assay type: cell-based; conditions: THP1, 0.1, 0.2, 0.5 μM, 24 h
# Procedure: Specifically, mouse bone marrow-derived macrophages (BMDMs) as mouse-derived immune cells were extracted from the mouse thighbone and shinbone, and then cultured in DMEM containing 10% fetal bovine serum (FBS) and antibiotics. Human macrophages (THP1) as human-derived immune cells were cultured in RPMI media containing 10% FBS and antibiotics.
# The cultured cells were treated with AmTARS at 0.1 μM, 0.2 μM, and 0.5 μM for 24 h to obtain cell cultures. For cell removal, the media were centrifuged at 500×g for 10 min to obtain supernatants, which were then analyzed using an ELISA set (mouse interleukin (IL)-6, mouse IL-10, mouse tumor necrosis factor (TNF)-α, human IL-6, human IL-10, human TNF-α; BD Biosciences) to investigate the secretion of mouse- and human-derived immune cytokines.
# mouse adipocyte 3T3-L1 = assay: Immunoblot of insulin signaling in 3T3-L1 with PMA or TNF-α induced inflammation; assay type: cell-based; conditions: 0.5 μM AmTARS
# Procedure: Next, to determine whether the anti-inflammatory function of AmTARS affected the regulation of metabolic disease-associated intracellular signaling, immunoblot analysis was performed using the mouse adipocyte 3T3-L1.
# Specifically, 3T3-L1 cells were cultured in DMEM containing 10% bovine calf serum (BCS) and antibiotics under conditions of 5% CO2 and 37° C. The cells were treated with 2 μM phorbol 12-myristate 13-acetate (PMA) or 20 ng/ml TNF-α to create an inflammatory environment in the cultured cells. The cells were treated with 100 nM insulin and 0.5 μM AmTARS for 24 h, and then changes in intracellular signaling were investigated.
molecule,measurement,setting,value
B1,increase in B cells,[1],could not be shown
same,NF-κB activity in the distal intestine induced by repeated DSS treatment,[2],significantly dampened
same,interaction with TLR2 among candidates tested (pull-down),"[3]; HEK 293T cells, Strep-AmTARS and TLR2-FLAG",interacted only with TLR2
same,direct interaction with TLR2 (in vitro pull-down),"[3]; purified TLR2-FLAG and His-tagged proteins, Ni-NTA",interacts directly with TLR2 via the U2-containing catalytic domain (CD)
same,colitis-induced body weight loss,[4],no effect
same,damage score,[4],no effect
same,disease activity score,[4],no effect
same,disruption of the epithelial lining,[4],no effect
same,numbers of IL-10-positive macrophages,[4],did not affect
same,numbers of inflammatory monocytes,[4],did not affect
same,shortening of the intestine,[4],no effect
same,secretion of IL-6,human macrophages (THP1),not secreted
same,secretion of IL-10,human macrophages (THP1),increased in a dose-dependent manner
same,secretion of TNF-α,human macrophages (THP1),not secreted
same,phosphorylation of protein kinase B (AKT),"mouse adipocyte 3T3-L1; 3T3-L1, 100 nM insulin and 2 μM PMA, 24 h",again increased the phosphorylation
same,S6 kinase (S6K),"mouse adipocyte 3T3-L1; 3T3-L1, TNF-α, insulin",phosphorylated and activated
same,glycogen synthase kinase (GSK)-3β,"mouse adipocyte 3T3-L1; 3T3-L1, TNF-α, insulin",phosphorylated and inhibited
same,insulin receptor substrate (IRS),"mouse adipocyte 3T3-L1; 3T3-L1, TNF-α, insulin",no significant change
same,phosphorylation of AKT,"mouse adipocyte 3T3-L1; 3T3-L1, insulin resistance induced by 20 ng/ml TNF-α, 100 nM insulin",increased the phosphorylation
